According to US20250340660A1 (published 2025):
Each block holds one binder with its values, some of them ahead of it.

Key:
[1] = molecular target: T1, human CD30L (recombinant protein) (human, UniProt P32971 63-234); test: Carterra, human CD30L
T1 construct: also called rhCD30L; TNFSF8
T1 sequence: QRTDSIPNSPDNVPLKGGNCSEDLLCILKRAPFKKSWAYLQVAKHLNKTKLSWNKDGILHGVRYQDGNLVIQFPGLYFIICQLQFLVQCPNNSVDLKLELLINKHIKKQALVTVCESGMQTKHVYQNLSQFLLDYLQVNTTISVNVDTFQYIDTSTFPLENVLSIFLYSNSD

recombinant human CD30L = molecular target: T2, recombinant human CD30L (human, UniProt P32971 63-234, limits assumed); test: biosensor: antibody captured, CD30L bound, competitor rhCD30 added; signal of CD30 association (over 0.15 = non-blocking)
T2 construct: also called rhCD30L; TNFSF8
T2 sequence (looked up): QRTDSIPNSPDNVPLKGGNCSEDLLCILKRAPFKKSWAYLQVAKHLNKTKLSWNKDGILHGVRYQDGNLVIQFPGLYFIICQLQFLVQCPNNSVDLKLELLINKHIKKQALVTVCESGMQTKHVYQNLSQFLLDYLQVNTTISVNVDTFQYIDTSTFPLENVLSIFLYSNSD
Procedure: Briefly, individual anti-human biosensors were loaded with purified IgG (normalized to 10 μg/mL) and a baseline was measured for each biosensor. Biosensors were saturated with biotin and with polyclonal huIgG and a baseline was measured. […] Biosensors were moved to buffer wells to measure the dissociation rate.

[2] = molecular target: T3, human CD30L expressed on B16 cells (human, UniProt P32971 1-234); test: cell-based or functional assay
T3 sequence (looked up): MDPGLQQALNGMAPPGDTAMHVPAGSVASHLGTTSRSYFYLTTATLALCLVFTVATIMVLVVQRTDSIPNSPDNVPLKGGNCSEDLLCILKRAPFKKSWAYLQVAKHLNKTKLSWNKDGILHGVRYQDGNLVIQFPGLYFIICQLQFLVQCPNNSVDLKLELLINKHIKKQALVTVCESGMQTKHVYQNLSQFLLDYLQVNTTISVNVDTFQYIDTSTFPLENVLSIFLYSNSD

[3] = molecular target: T4, cynomolgus CD30L expressed on HEK293 cells (cynomolgus, UniProt A0A7N9CVX7 1-234); test: cell-based or functional assay
T4 sequence: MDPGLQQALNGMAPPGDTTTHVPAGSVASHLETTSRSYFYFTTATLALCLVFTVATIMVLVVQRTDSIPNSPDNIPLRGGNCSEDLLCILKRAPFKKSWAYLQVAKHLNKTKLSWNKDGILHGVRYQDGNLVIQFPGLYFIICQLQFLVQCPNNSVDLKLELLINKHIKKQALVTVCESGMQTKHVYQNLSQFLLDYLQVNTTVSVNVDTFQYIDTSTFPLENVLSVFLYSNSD

[4] = molecular target: T5, recombinant human CD30L protein (human, UniProt P32971 63-234, limits assumed); test: ELISA, hybridoma supernatant 1/50 dil, recombinant human CD30L
T5 construct: also called huCD30L; rhCD30L
T5 sequence (looked up): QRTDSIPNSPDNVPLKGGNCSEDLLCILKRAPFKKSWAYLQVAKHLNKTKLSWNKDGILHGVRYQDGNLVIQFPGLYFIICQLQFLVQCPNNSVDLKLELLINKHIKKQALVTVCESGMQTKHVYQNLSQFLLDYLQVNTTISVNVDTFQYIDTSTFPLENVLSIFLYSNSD

[5] = molecular target: T5, recombinant human CD30L protein; test: ELISA, hybridoma supernatant 1/500 dil, recombinant human CD30L
[6] = molecular target: T5, recombinant human CD30L protein; test: ELISA, hybridoma supernatant 1/5000 dil, recombinant human CD30L
[7] = molecular target: T6, human CD30L expressed on cells (human, UniProt P32971 1-234); test: flow cytometry, hybridoma supernatant 1/50 dil, cells expressing human CD30L
T6 construct: also called huCD30L; TNFSF8
T6 sequence: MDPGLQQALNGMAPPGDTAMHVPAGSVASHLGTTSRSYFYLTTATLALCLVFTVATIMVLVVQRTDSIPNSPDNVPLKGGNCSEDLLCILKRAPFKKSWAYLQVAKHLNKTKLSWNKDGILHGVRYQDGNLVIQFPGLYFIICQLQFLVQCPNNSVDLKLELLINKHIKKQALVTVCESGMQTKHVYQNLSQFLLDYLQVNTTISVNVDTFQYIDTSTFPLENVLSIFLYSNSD

[8] = molecular target: T7, cynomolgus CD30L expressed on cells (cynomolgus, UniProt A0A7N9CVX7 1-234); test: flow cytometry, hybridoma supernatant 1/50 dil, cells expressing cynomolgus CD30L
T7 construct: whole, on cells; also called cyCD30L; cyno CD30L
T7 sequence: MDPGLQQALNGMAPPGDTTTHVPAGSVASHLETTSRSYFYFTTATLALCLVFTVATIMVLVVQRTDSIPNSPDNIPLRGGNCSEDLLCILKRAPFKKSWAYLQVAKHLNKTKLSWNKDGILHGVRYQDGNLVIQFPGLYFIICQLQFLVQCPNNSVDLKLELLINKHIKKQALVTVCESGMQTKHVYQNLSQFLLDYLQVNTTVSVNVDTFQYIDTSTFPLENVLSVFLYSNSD

Kd [1]: 0.559 nM
B1: anti-CD30L antibody clone 82 (antibody, V domains shown)
VH: EVQLVESGGGLVQPGGSLRLSCAVSGITFSNAWMSWVRQAPGKGLEWVGRIKSKTYGGTTDYAAPVKGRFIISRDDSKDTLYLQMNSLKTEDTAIYYCTTDPWNYVNYNYFMDVWGKGTTVTVSS
VL: DIQMTQSPSSLSASVGDRVTITCRASQDIRNYLAWYQQKPGKITHLLVYAASTLQSGVPSRFSGSGSGTDFTLTINSLQPEDVATYYCQNYFSVPLTFGGGTKVEIK
notes: Purified recombinant antibody

Kd [1]: 1.52 nM
B4: anti-CD30L antibody clone 65 (antibody, V domains shown)
VH: EVQLVESGGGLVQPGGSLKLSCAASGFTFSNYAMTWVRQAPGKGLEWVSAISGYGGSTYYAASVKGRFTISRDNSKNTLFLQMNSLRAEDTAVYYCAKDHDYYAFDYWGQGTLVPVSS
VL: not shown
notes: Purified recombinant antibody

rhCD30L:rhCD30 Blocking (recombinant human CD30L): 0.0522 relative units
B5: anti-CD30L antibody clone 65 (antibody, V domains shown)
VH: EVQLVESGGGLVQPGGSLKLSCAASGFTFSNYAMTWVRQAPGKGLEWVSAISGYGGSTYYAASVKGRFTISRDNSKNTLFLQMNSLRAEDTAVYYCAKDHDYYAFDYWGQGTLVPVSS
VL: not shown
notes: purified recombinant IgG, humanized mouse strain #1; also called Clone ID 65

Kd [1]: 3.54 nM
B7: anti-CD30L antibody clone 80 (antibody, V domains shown)
VH: EVQLVESGGGLVQPGGSLRLSCEVSGFTFSSYDMHWVRQVTGTGLEWVSSIGIGGDTYYPGSVKGRFTISRENAKNSLYLQMNSLRGGDTGVYYCARGEWDLLWYFMDVWGKGTTVTVSS
VL: DIQMTQSPSSLSASIGDRVTITCRASQGISSWLAWYQQKPGKAPKLLIYAASSLQSGVPSRFSGSGSGTDFTLTISSLQPEDFATYYCQQANSFPLTFGGGTKVEIK
notes: Purified recombinant antibody

Inhibition of IL-8 release in a dual cell assay (B16-huCD30L cells + K299 cells) IC50 [2]: 0.89 nM | Inhibition of IL-8 release in a dual cell assay (HEK293-cyCD30L cells + K299 cells) IC50 [3]: 0.41 nM
B9: anti-CD30L antibody clone 2 germlined (antibody, V domains shown)
VH: EVQLVESGGGLVQPGRSLRLSCAASGFNFDDYAMHWVRQAPGKGLEWVSGISWRSGNIGYADSVKGRFTISRDNAKNSLYLQMNSLRAEDTALYYCAKDKGIGFNWNYEGFDYWGQGTLVTVSS
VL: DIQMTQSPSSLSASVGDRVTITCRASQGISNHLAWFQQKPGKAPKSLIYAASSLQSGVPSRFSGSGSGTDFTLTISSLQPEDFATYYCQQYVTYPLTFGGGTKVEIK

Further lines, the binder ahead of its results:

B2: anti-CD30L antibody clone 64 (antibody, V domains shown)
VH: EVQLVESGGGLVQPGGSLRLSCAASGFTFSNYAMTWVRQAPGKGLEWVSAISGFGGSTYYADSVKGRFTISRDNSKNTLYLQMNSLRAEDTAVYYCAKDHDYYAFDYWGQGTLVTVSS
VL: not shown
notes: Purified recombinant antibody
Kd [1]: 1.57 nM

B3: anti-CD30L antibody clone 64 (antibody, V domains shown)
VH: EVQLVESGGGLVQPGGSLRLSCAASGFTFSNYAMTWVRQAPGKGLEWVSAISGFGGSTYYADSVKGRFTISRDNSKNTLYLQMNSLRAEDTAVYYCAKDHDYYAFDYWGQGTLVTVSS
VL: not shown
notes: purified recombinant IgG, humanized mouse strain #1; also called Clone ID 64
rhCD30L:rhCD30 Blocking (recombinant human CD30L): 0.0633 relative units

B6: anti-CD30L antibody clone 2 (antibody, V domains shown)
VH: EVQLVESGGGLVQPGRSLRLSCAASGFNFDDYAMHWVRQAPGKGLEWVSGISWRSGNIGYAGSVKGRFTISRDNAKNSLYLQMNSLRPEDSALYYCAKDKGIGFNWNYEGFDYWGQGTLVTVSS
VL: DIQMTQSPSSLSASVGDRVTITCRASQGISNHLAWFQQKPGKAPKSLIYAASSLQSGVPSKFSGSGSGTDFTLTISSLQPEDFATYYCQQYVTYPLTFGGGTKVEIK
Inhibition of IL-8 release in a dual cell assay (B16-huCD30L cells + K299 cells) IC50 [2]: 0.81 nM | Inhibition of IL-8 release in a dual cell assay (HEK293-cyCD30L cells + K299 cells) IC50 [3]: 0.31 nM

B8: anti-CD30L antibody Clone 2 (parental, hybridoma) (antibody, V domains shown)
VH: EVQLVESGGGLVQPGRSLRLSCAASGFNFDDYAMHWVRQAPGKGLEWVSGISWRSGNIGYAGSVKGRFTISRDNAKNSLYLQMNSLRPEDSALYYCAKDKGIGFNWNYEGFDYWGQGTLVTVSS
VL: DIQMTQSPSSLSASVGDRVTITCRASQGISNHLAWFQQKPGKAPKSLIYAASSLQSGVPSKFSGSGSGTDFTLTISSLQPEDFATYYCQQYVTYPLTFGGGTKVEIK
notes: Tested as diluted hybridoma supernatant from mice with a humanized immunoglobulin locus
Elisa Binding (OD) [4]: 2.15 OD | Elisa Binding (OD) [5]: 1.71 OD | Elisa Binding (OD) [6]: 0.565 OD | Cell Binding (MFI) [7]: 280 MFI | Cell Binding (MFI) [8]: 57.6 MFI
